Laboratory results as given in article PMC8549804 (Chemical Science, 2021).

Target: the molecule itself
Assay: native MS

B1: gp32-ΔCTD (amino acids 1-254) (domain or fragment, bacteriophage T4, UniProt P03695 1-254, looked up)
chain: MFKRKSTAELAAQMAKLNGNKGFSSEDKGEWKLKLDNAGNGQAVIRFLPSKNDEQAPFAILVNHGFKKNGKWYIETCSSTHGDYDSCPVCQYISKNDLYNTDNKEYSLVKRKTSYWANILVVKDPAAPENEGKVFKYRFGKKIWDKINAMIAVDVEMGETPVDVTCPWEGANFVLKVKQVSGFSNYDESKFLNQSAIPNIDDESFQKELFEQMVDLSEMTSKDKFKSFEELNTKFGQVMGTAVMGGAAATAAKK
stoichiometry N: 2

B2: bacteriophage T4 gene product 32 (gp32) (natural protein)
chain: MFKRKSTAELAAQMAKLNGNKGFSSEDKGEWKLKLDNAGNGQAVIRFLPSKNDEQAPFAILVNHGFKKNGKWYIETCSSTHGDYDSCPVCQYISKNDLYNTDNKEYSLVKRKTSYWANILVVKDPAAPENEGKVFKYRFGKKIWDKINAMIAVDVEMGETPVDVTCPWEGANFVLKVKQVSGFSNYDESKFLNQSAIPNIDDESFQKELFEQMVDLSEMTSKDKFKSFEELNTKFGQVMGTAVMGGAAATAAKKADKVADDLDAFNVDDFNTKTEDDFMSSSSGSSSSADDTDLDDLLNDLC
modifications: disulfur monoxide moiety at Cys302 (C-terminal, attributed to the intein reaction)
stoichiometry N: 2
